# Experimental data as given in patent US20220389118A1 (Chugai, published 2022).
# Positions count from the first letter of the chain named.
# T1: human FcγRIIb extracellular domain with C-terminal His tag (human, UniProt P31994 43-217)
# T1 construct: extracellular domain
# T1 sequence (looked up): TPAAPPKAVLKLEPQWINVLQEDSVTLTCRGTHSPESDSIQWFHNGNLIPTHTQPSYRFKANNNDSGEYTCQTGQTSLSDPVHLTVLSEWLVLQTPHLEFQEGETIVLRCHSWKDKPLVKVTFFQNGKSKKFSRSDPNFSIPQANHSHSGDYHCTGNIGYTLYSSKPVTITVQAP
# T2: human FcγRIIa type H extracellular domain with C-terminal His tag (human, UniProt P12318 34-217)
# T2 construct: extracellular domain; also called FcγRIIaH; FcγRIIa(H)
# T2 sequence (looked up): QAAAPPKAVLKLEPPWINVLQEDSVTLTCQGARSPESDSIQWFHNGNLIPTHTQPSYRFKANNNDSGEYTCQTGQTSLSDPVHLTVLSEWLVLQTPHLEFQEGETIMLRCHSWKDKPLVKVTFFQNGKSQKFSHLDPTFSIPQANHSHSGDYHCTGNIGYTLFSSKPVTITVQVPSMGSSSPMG
# T3: human FcγRIIa type R extracellular domain with C-terminal His tag (human, UniProt P12318 34-217)
# T3 construct: extracellular domain; also called FcγRIIaR; FcγRIIa(R)
# T3 sequence (looked up): T2 sequence (looked up) with H134R
# B1: IL6R-BP503/IL6R-L (antibody, human IgG1, kappa)
# heavy: QVQLQESGPGLVKPSETLSLTCAVSGHSISHDHAWSWVRQPPGEGLEWIGFISYSGITNYNPSLQGRVTISRDNSKNTLYLQMNSLRAEDTAVYYCARSLARTTAMDYWGEGTLVTVSSASTKGPSVFPLAPSSKSTSGGTAALGCLVKDYFPEPVTVSWNSGALTSGVHTFPAVLQSSGLYSLSSVVTVPSSSLGTQTYICNVNHKPSNTKVDKKVEPKSCDKTHTCPPCPAPDLLGDDSVFLFPPKPKDTLMISRTPEVTCVVIDVAEEDGEVKFNWYVDGVEVHNAKTKPREEQDNSTYRVVSVLTVLHQDWLNGKEYKCKVSNKGLPRPIEKTISKAKGQPREPQVYTLPPSRDELTKNQVSLTCLVKGFYPSDIAVEWESNGQPENNYKTTPMVLDSDGSFFLYSKLTVDKSRWQQGNVFSCSVMHEALHNHYTQESLSLSP
# light: not shown
# notes: copies: 2 + 2
# B2: IL6R-BP487/IL6R-L (antibody, human IgG1, kappa)
# heavy: B1 heavy with D298Y, G329A
# light: not shown
# notes: copies: 2 + 2
# B3: IL6R-BP502/IL6R-L (antibody, human IgG1, kappa)
# heavy: B1 heavy with M398P
# light: not shown
# notes: copies: 2 + 2
# B4: IL6R-BP550/IL6R-L (antibody, human IgG1, kappa)
# heavy: B1 heavy with D235E, A269G, E274D, G329A, M398P
# light: not shown
# notes: copies: 2 + 2
# B5: IL6R-BP496/IL6R-L (antibody, human IgG1, kappa)
# heavy: B1 heavy with G329A, R332A, M398P
# light: not shown
# notes: copies: 2 + 2
# B6: IL6R-BP540/IL6R-L (antibody, human IgG1, kappa)
# heavy: B1 heavy with D235E, A269S, E274P, G329A, M398P
# light: not shown
# notes: copies: 2 + 2
# B7: IL6R-BP511/IL6R-L (antibody, human IgG1, kappa)
# heavy: B1 heavy with D235E, E274P, G329A, M398P
# light: not shown
# notes: copies: 2 + 2
# B8: IL6R-BP538/IL6R-L (antibody, human IgG1, kappa)
# heavy: B1 heavy with D235E, A269S, D298Y, G329A, M398P
# light: not shown
# notes: copies: 2 + 2
# B9: IL6R-BP539/IL6R-L (antibody, human IgG1, kappa)
# heavy: B1 heavy with D235E, A269G, E274P, G329A, M398P
# light: not shown
# notes: copies: 2 + 2
# B10: IL6R-BP497/IL6R-L (antibody, human IgG1, kappa)
# heavy: B1 heavy with D298Y, M398P
# light: not shown
# notes: copies: 2 + 2
# B11: IL6R-BP499/IL6R-L (antibody, human IgG1, kappa)
# heavy: B1 heavy with G329A, M398L
# light: not shown
# notes: copies: 2 + 2
# B12: IL6R-BP489/IL6R-L (antibody, human IgG1, kappa)
# heavy: B1 heavy with G329A
# light: not shown
# notes: copies: 2 + 2
# B13: IL6R-BP536/IL6R-L (antibody, human IgG1, kappa)
# heavy: B1 heavy with A269S
# light: not shown
# notes: copies: 2 + 2
# B14: IL6R-BP491/IL6R-L (antibody, human IgG1, kappa)
# heavy: B1 heavy with D235E, G329A, M398P
# light: not shown
# notes: also called IL6R-491/IL6R-L; copies: 2 + 2
# B15: IL6R-BP533/IL6R-L (antibody, human IgG1, kappa)
# heavy: B1 heavy with A269G, G329A, M398L
# light: not shown
# notes: copies: 2 + 2
# B16: IL6R-BP498/IL6R-L (antibody, human IgG1, kappa)
# heavy: B1 heavy with D298Y, G329A, M398L
# light: not shown
# notes: copies: 2 + 2
# B17: IL6R-BP510/IL6R-L (antibody, human IgG1, kappa)
# heavy: B1 heavy with D235E, E274P, D298Y, G329A, M398P
# light: not shown
# notes: copies: 2 + 2
# B18: IL6R-BP554/IL6R-L (antibody, human IgG1, kappa)
# heavy: B1 heavy with D235E, E274D, D298Y, G329A, M398P
# light: not shown
# notes: copies: 2 + 2
# B19: IL6R-BP558/IL6R-L (antibody, human IgG1, kappa)
# heavy: B1 heavy with D235E, A269G, E274D, D298Y, G329A, M398P
# light: not shown
# notes: copies: 2 + 2
# B20: IL6R-BP438/IL6R-L (antibody, human IgG1, kappa)
# heavy: B1 heavy with I266V, D298Y, G329A, I334T, M398P
# light: not shown
# notes: copies: 2 + 2
# Biological target: T1, human FcγRIIb extracellular domain with …
# Test: SPR (Biacore), ratio of KDs
Binder,KD(IIaH)/KD(IIb),KD(IIaR)/KD(IIb)
B1,503,33.2
B2,730,33.8
B3,352,29.5
B4,655,44.2
B5,201,25.5
B6,803,36.6
B7,1240,50.6
B8,568,38.6
B9,667,39
B10,236,21
B11,685,33.8
B12,870,42.8
B13,438,26.6
B14,724,38.8
B15,634,29.3
B16,564,30.8

# Biological target: T4, human FcγRIa extracellular domain with C-terminal His tag (human, UniProt P12314 16-292)
# T4 construct: extracellular domain
# T4 sequence (P12314 16-292): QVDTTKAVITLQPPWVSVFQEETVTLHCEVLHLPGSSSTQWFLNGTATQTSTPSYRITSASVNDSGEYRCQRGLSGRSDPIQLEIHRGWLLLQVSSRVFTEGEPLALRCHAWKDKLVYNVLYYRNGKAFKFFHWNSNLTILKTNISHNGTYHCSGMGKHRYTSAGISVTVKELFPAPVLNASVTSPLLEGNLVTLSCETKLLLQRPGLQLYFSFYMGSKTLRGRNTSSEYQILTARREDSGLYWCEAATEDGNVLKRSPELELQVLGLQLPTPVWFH
# Test: SPR (Biacore)
row,Binder,Kd [nM]
1,B17,6
2,B18,8
3,B1,1.2
4,B2,1.2
5,B3,2.1
6,B4,25
7,B5,1.2
8,B6,96
9,B7,6
10,B8,55
11,B9,64
12,B10,2.1
13,B11,1.2
14,B12,1.3
15,B13,8.9
16,B14,5.3
17,B15,7.7
18,B16,1.3

# Biological target: T1, human FcγRIIb extracellular domain with …
# Test: SPR (Biacore)
row,Binder,Kd [nM]
1,B17,3.8
2,B1,1.7
3,B2,1.2
4,B3,3.7
5,B4,7.6
6,B5,18
7,B6,5.7
8,B7,3.5
9,B8,5.3
10,B19,9
11,B9,8.4
12,B10,4.1
13,B11,1.5
14,B12,1
15,B13,3
16,B14,3
17,B15,4.1
18,B16,1.7

# Biological target: T2, human FcγRIIa type H extracellular …
# Test: SPR (Biacore)
row,Binder,Kd [nM]
1,B20,1600
2,B17,4000
3,B18,2300
4,B1,860
5,B2,840
6,B3,1300
7,B4,5000
8,B5,3700
9,B6,4600
10,B7,4300
11,B8,3000
12,B19,4900
13,B9,5600
14,B10,960
15,B11,1000
16,B12,870
17,B13,1300
18,B14,2200
19,B15,2600
20,B16,930

# Biological target: T3, human FcγRIIa type R extracellular …
# Test: SPR (Biacore)
row,Binder,Kd [nM]
1,B20,180
2,B1,57
3,B2,39
4,B3,110
5,B4,340
6,B5,470
7,B6,210
8,B7,180
9,B8,200
10,B19,330
11,B9,330
12,B10,85
13,B11,49
14,B12,43
15,B13,79
16,B14,120
17,B15,120
18,B16,51

# Biological target: T1, human FcγRIIb extracellular domain with …
# Test: SPR (Biacore), parent IL6R-B3/IL6R-L
row,Binder,KD(IIb) parent/KD(IIb) altered polypeptide
1,B1,1810
2,B2,2700
3,B3,840
4,B4,406
5,B5,168
6,B6,541
7,B7,891
8,B8,587
9,B9,369
10,B10,764
11,B11,2120
12,B12,3100
13,B13,1040
14,B14,1020
15,B15,756
16,B16,1880

# Biological target: T3, human FcγRIIa type R extracellular …
# Test: SPR (Biacore), parent IL6R-B3/IL6R-L
row,Binder,KD(IIaR) parent/KD(IIaR) altered polypeptide
1,B1,19.4
2,B2,28.3
3,B3,10.1
4,B4,3.3
5,B5,2.3
6,B6,5.2
7,B7,6.3
8,B8,5.4
9,B9,3.4
10,B10,12.9
11,B11,22.3
12,B12,25.7
13,B13,13.9
14,B14,9.3
15,B15,9.2
16,B16,21.7
